Measurements as given in publication PMC3970802.

Biological target: TLND2AXH, ataxin-1 residues 410-561, recombinant protein for size exclusion chromatography
Experiment: SEC; analytical, Superdex-75 10/300 GL, 20 mM Tris-HCl pH 7, 150 mM NaCl, 1 mM TCEP; 200 ul of 150 uM protein incubated 24 h at 37 °C, each injected separately; 0.8 ml/min; dimer to monomers

Substance “TLND2AXH, ataxin-1 residues 410-561, recombinant protein for size exclusion chromatography (domain or fragment)” has a stoichiometry N of 2.
